B1: Wnt-5a: Partially purified conditioned media from stable fibroblast cell line engineered to secrete Wnt-5a ligand (protein)
chain: IIGAQPLCSQLAGLSQGQKKLCHLYQDHMQYIGEGAKTGIKECQYQFRHRRWNCSTVDNTSVFGRVMQIGSRETAFTYAVSAAGVVNAMSRACREGELSTCGCSRAARPKDLPRDWLWGGCGDNIDYGYRFAKEFVDARERERIHAKGSYESARILMNLHNNEAGRRTVYNLADVACKCHGVSGSCSLKTCWLQLADFRKVGDALKEKYDSAAAMRLNSRGKLVQVNSRFNSPTTQDLVYIDPSPDYCVRNESTGSLGTQGRLCNKTSEGMDGCELMCCGRGYDQFKTVQTERCHCKFHWCCYVKCKKCTEIVDQFVCK
modifications: left off: small tags and cut ends
B2: Wnt-1: Partially purified conditioned media from stable fibroblast cell line engineered to secrete Wnt-1 ligand (protein)
chain: ANSSGRWWGIVNIASSTNLLTDSKSLQLVLEPSLQLLSRKQRRLIRQNPGILHSVSGGLQSAVRECKWQFRNRRWNCPTAPGPHLFGKIVNRGCRETAFIFAITSAGVTHSVARSCSEGSIESCTCDYRRRGPGGPDWHWGGCSDNIDFGRLFGREFVDSGEKGRDLRFLMNLHNNEAGRTTVFSEMRQECKCHGMSGSCTVRTCWMRLPTLRAVGDVLRDRFDGASRVLYGNRGSNRASRAELLRLEPEDPAHKPPSPHDLVYFEKSPNFCTYSGRLGTAGTAGRACNSSSPALDGCELLCCGRGHRTRTQRVTERCNCTFHWCCHVSCRNCTHTRVLHECL
modifications: left off: small tags and cut ends
B3: Wnt-2: Partially purified / conditioned media from Wnt-2 overexpressing fibroblast cell line (protein, UniProt P21552 26-360, looked up)
Protein Wnt-2: SWWYMRATGGSSRVMCDNVPGLVSRQRQLCHRHPDVMRAIGLGVAEWTAECQHQFRQHRWNCNTLDRDHSLFGRVLLRSSRESAFVYAISSAGVVFAITRACSQGELKSCSCDPKKKGSAKDSKGTFDWGGCSDNIDYGIKFARAFVDAKERKGKDARALMNLHNNRAGRKAVKRFLKQECKCHGVSGSCTLRTCWLAMADFRKTGDYLWRKYNGAIQVVMNQDGTGFTVANKRFKKPTKNDLVYFENSPDYCIRDREAGSLGTAGRVCNLTSRGMDSCEVMCCGRGYDTSHVTRMTKCECKFHWCCAVRCQDCLEALDVHTCKAPKSADWATPT
modifications: conditioned medium
notes: Partially purified / conditioned media from Wnt-2 overexpressing fibroblast cell line
B4: Wnt-7a: Partially purified / conditioned media from Wnt-7a overexpressing fibroblast cell line (protein, UniProt P24383 32-349, looked up)
Protein Wnt-7a: LGASIICNKIPGLAPRQRAICQSRPDAIIVIGEGSQMGLDECQFQFRNGRWNCSALGERTVFGKELKVGSREAAFTYAIIAAGVAHAITAACTQGNLSDCGCDKEKQGQYHRDEGWKWGGCSADIRYGIGFAKVFVDAREIKQNARTLMNLHNNEAGRKILEENMKLECKCHGVSGSCTTKTCWTTLPQFRELGYVLKDKYNEAVHVEPVRASRNKRPTFLKIKKPLSYRKPMDTDLVYIEKSPNYCEEDPVTGSVGTQGRACNKTAPQASGCDLMCCGRGYNTHQYARVWQCNCKFHWCCYVKCNTCSERTEMYTCK
modifications: conditioned medium
notes: Partially purified / conditioned media from Wnt-7a overexpressing fibroblast cell line

Columns and labels:
[1] = system: E14.5 ventral mesencephalic precursor cultures; test: Number of TH+ neurons in E14.5 ventral mesencephalic precursor cultures; type: cell-based, rat; conditions: for effects on TH+ cell numbers, time course: 10 units, 1, 3 and 7 days in vitro; for increases in TH+ cell numbers compared with GDNF, FGF-2 or FGF-8 / increases in TH+ cell numbers compared with VM T1A conditioned medium: after 3 days; for TH+ cell numbers: increasing concentrations of partially purified Wnt, 3 days; for increase in TH+ neurons: partially purified Wnts, compared to controls (FIG. 10A)
Description: (§1) Ventral mesencephala and cerebral cortices from embryos E13.5-14.5 obtained from timed-mated Sprague-Dawley rats were dissected, mechanically dissociated and plated at a final density of 1×10^5 cells/cm2 on poly-D-lysine coated 12- or 24-well plates in a defined, serum-free medium (N2, consisting of a 1:1 mixture of F12 and DMEM containing insulin (10 ng/ml), transferrin (100 μg/ml), putrescine (100 μM), progesterone (20 nM), selenium (30 nM), glucose (6 mg/ml), and bovine serum albumin (1 mg/ml)). Purified Type 1 astrocytes were obtained from mixed glial cultures derived from the VM or CTX of P1 rats according to a standard protocol (Wagner et al., 1999). After shaking and replating into 12-well plates, astrocytes were grown to confluency in 15% fetal bovine serum-containing media and changed to N2 medium, at which time freshly dissected VM or CTX cells were plated on top of the astrocytes at a density of 1×10^5 cells/cm2. All factors were added once, at the initiation of culture, with the exception of 5-bromodeoxyuridine (BrdU), which was added 4-6 hours prior to fixation. Cultures were maintained in a humidified 5% CO2, 95% air incubator at 37° C. and fixed after given time periods with 4% paraformaldehyde for 45 minutes prior to immunocytochemical analysis.
B1A fibroblast lines stably overexpressing hemagglutanin-tagged Wnt-1a, 3a, or 5a (Shimizu H., 1997) were grown in standard complete media (DMEM+10% FBS) supplemented with 100 ug/ml G-418. For collection of conditioned media, cells were replated at low density in complete media and allowed to reach 50-75% confluency, at which point cells were washed and media was replaced with serum-free N2 (with 10 μM sodium butyrate) for 24 hours. Conditioned media from sister flasks was then harvested, pooled as lots and stored at −80° C. for up to 2 months. When compared to fresh CM, no loss of activity was observed when using this collection and storage routine. T1A CM was harvested using a similar procedure, with the exception that media was collected after 3 days in vitro.
For concentration, individual lots of CM were thawed at room temperature, divided into 80 ml aliquots, loaded onto Centricon-Plus 80 columns (Millipore) and concentrated via centrifugation according to the manufacturers instructions. Following concentration, aliquots were re-pooled and frozen at −80 C after a sample was taken for determination of protein content and Western blot analysis. In brief, 20 ug of protein was loaded onto a 10% polyacrylamide mini-gel and run under denaturing conditions at 150 V for approximately 30 minutes. After dry electroblot transfer onto PVDF membranes (Hybond P, Amersham Pharmacia Biotech, Upsalla, Sweden) and pre-incubation for 30 minutes in a blocking buffer consisting of 3% bovine serum albumin in Tris-Buffered Saline with […] Triton-X 100 (TBST), blots were incubated with mouse anti-hemagglutinin (Babco) diluted 1:1000 in TBST overnight at 4 C. After washing, blots were incubated with alkaline phosphatase-coupled goat anti-mouse IgG (Santa Cruz) diluted 1:1000 in TBST for 1 hour at room temperature. Blots were visualized using the Amersham ECF reagent and blue fluorescence quantitated using a Molecular Devices Storm 840 phosphoimager.
B1A fibroblast lines were cotransfected with the mFz8CRD-IgG/pRK5 and the pIRES puro 2 (Clontech, BD Bioscience, Erembodegem, Belgium) plasmids, using Lipofectamine Plus reagent (Invitrogen, Lidingo, Sweden) according to the instruction of the manufacturer. Upon selection for puromycin resistance (1 μg/ml Sigma, Stockholm, Sweden), clones were isolated and expanded. A clone overexpressing Fz8CRD 700× (real time RT-PCR analysis) was identified. Harvesting and partial purification of Fz8CRD conditioned media were performed as described previously. In all the blocking experiments performed, the Fz8CRD and B1A control partial purified conditioned medias were used at a final concentration of 125-250 μg/ml. […]

[2] = system: VM precursor cultures / Nurr1+ precursor cells; test: BrdU incorporation (proliferation) in VM precursor cultures; type: cell-based, rat; conditions: for increase in Nurr1 and BrdU double positive precursor cells (mitosis in Nurr1+ population): 1 day in vitro; for BrdU incorporation in VM precursor cultures: 3 days in vitro
Description: as §1
Fixed cultures were incubated with one of the following antibodies, diluted appropriately in phosphate-buffered saline (PBS) containing 1% bovine serum albumin and 0.3% Triton-X 100: mouse anti-BrdU, 1:50 (DAKO, Denmark), mouse anti-β-tubulin, Type III (TuJ1), 1:250 (Sigma), mouse anti-TH, 1:1000 (Incstar, USA), rabbit anti-TH, 1:250 (PelFreeze); rabbit anti-Nurr1, 1:2000 (gift from Dr. T. Perlmann, Sweden), rabbit anti-Nurr1, 1:1000 (Santa Cruz, USA) or mouse anti-Nurr1, 1:250 (BD Transduction Laboratories, USA), rabbit anti Adh2 1:4000 (gift from Dr. R. Lindahl, South Carolina). Incubations were either carried out at 4° C. overnight, or at room temperature for 1 hour. Both processes yielded similar results. After washing, cultures were incubated for 1-3 hr with appropriate secondary antibodies (biotinylated 1:500; CY2-, FITC-, or rhodamine-coupled horse-anti-mouse IgG 1:100; or goat-anti-rabbit IgG 1:100; all from Vector, USA), in the same dilution buffer. Brightfield immunostaining was visualized with the Vector Laboratory ABC immunoperoxidase kit, using either NovaRed (red), or AEC (red), SG or 3-3′ dimaminobenzidine tetrahydrochloride (DAB 0.5 mg/ml)/nickel chloride (1.6 mg/ml) (gray/black), or VIP (violet) substrates. Double-staining was performed by sequential single staining as described. The order of staining was only critical for BrdU-double labeling, in which case the BrdU procedure was always performed second. […] Photos were acquired with a Zeiss Axioplan 100M microscope and collected with a Hamamatsu camera C4742-95 (with the QED imaging software).
Only clearly stained cells were counted as positive cells. Spheres were considered positive if they contained one or more positive cell. Quantitative immunocytochemical data on individual cells represent means and standard errors of counts obtained by a blinded observer from 10-20 non-overlapping fields (cells) or in the entire well (clusters), in each of 3-4 wells per condition from 3-4 independent experiments, unless stated otherwise. For each variable, initial statistical comparisons were performed by a global ANOVA, with multiple factors of dose, time point, treatment and/or region; if significant interactions between treatment and any other variable existed, data were further divided into separate times, doses or regions. Fisher's protected least significant difference was used post hoc to identify specific points at which the treatments differed from controls (or each other) only when significant interactions between factor treatment and other variables occurred. Significance for all tests was assumed at the level of p<0.05. […]

Molecule	effects on TH+ cell numbers, time course [1]	increases in TH+ cell numbers compared with GDNF, FGF-2 or FGF-8 [1]	increases in TH+ cell numbers compared with VM T1A conditioned medium [1]	TH+ cell numbers [1]	increase in Nurr1 and BrdU double positive precursor cells (mitosis in Nurr1+ population) [2]	BrdU incorporation in VM precursor cultures [2]	increase in TH+ neurons [1]
B1	detected as early as after 1 day in vitro	exceeded increases produced by known dopaminotrophic molecules	roughly equaled	robust dose-response increases	two	not	–
B2	detected as early as after 1 day in vitro	exceeded increases produced by known dopaminotrophic molecules	roughly equaled	robust dose-response increases	3 fold	increased	–
B3	–	–	–	–	–	slight decrease	~2 fold
B4	–	–	–	–	–	BrdU+ increases similar to that of Wnt-1	modest TH+ increases
